Laboratory results taken from patent publication US10940200.

Key:
[1] = target: TGF-β present in IFN-β-treated mouse 2D2-FIG splenocyte cultures (endogenous) (mouse); test: cell-based or functional assay
[2] = target: recombinant TGF-β1 (rat TGFβ1 sequence expressed in HEK cells, heat-activated) (rat) (UniProt P17246); test: cell-based or functional assay
Sequence of UniProt P17246 (P17246 279-390 limits assumed): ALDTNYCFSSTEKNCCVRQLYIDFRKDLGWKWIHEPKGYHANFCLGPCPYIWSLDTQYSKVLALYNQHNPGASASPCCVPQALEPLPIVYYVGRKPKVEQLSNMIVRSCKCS

inhibition of IFN-β-induced FOXP3+ Treg induction (GFP) in MOG35-55-stimulated 2D2-FIG splenocytes, 7 days [1]: 1 µg/mL | inhibition of TGF-β-induced FOXP3+ Treg induction (GFP) in MOG35-55-stimulated 2D2-FIG splenocytes, 7 days [2]: 1 µg/mL
B1: 1D11.16.8 anti-mouse-TGF-β1/2/3 mouse IgG1 mAb (antibody, from another filing, V domains shown)
VH: QVQLQQSGPELVRPGASVKLSCKASGYIFITYWMNWVKQRPGQGLEWIGQIFPASGSTNYNEMFEGKATLTVDTSSSTAYMQLSSLTSEDSAVYYCARGDGNYALDAMDYWGQGTSVTVSS
VL: DIVLTQSPASLAVSLGQRATISCRASESVDSYGNSFMHWYQQKSGQPPKLLIYLASNLESGVPARFSGSGSRTDFTLTIDPVEADDAATYYCQQNNEDPLTFGAGTKLEIK
